Molecular target: T1, Ets1 280-441 (UniProt P14921 280-441)
T1 sequence: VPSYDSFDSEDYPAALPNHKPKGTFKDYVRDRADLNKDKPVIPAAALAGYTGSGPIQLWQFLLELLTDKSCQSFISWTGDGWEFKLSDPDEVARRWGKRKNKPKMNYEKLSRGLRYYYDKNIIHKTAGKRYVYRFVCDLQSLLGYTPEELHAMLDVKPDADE
Test: X-ray crystallography

B1: stromelysin-1 EBS palindrome, crystal duplex (dsDNA)
DNA 1: CAGGAAGCACTTCCTG
DNA 2: GCAGGAAGTGCTTCCT
binding result: binds
